Drawing on the Immune Epitope Database (IEDB), this text covers Kd for seven sequences.

The target of one test is HLA-A*68:02. As to the kind of experiment: IEDB peptide-MHC binding, purified MHC/competitive/fluorescence; filed as Kd, often an IC50 or EC50 that approximates it; ≥ and ≤ were set here for values at or beyond the usual limits of such assays. The settings on record: source organism: Yersinia pestis Nepal516.
The target of a further test is HLA-B*15:42. The description is as above.
For a further test, the target named is HLA-B*83:01. The description is as above.
Another test concerns the target HLA-C*04:01. The test is described as above.
Test [1] concerns the target HLA-B*15:01. The test is described as follows: IEDB peptide-MHC binding, purified MHC/direct/fluorescence; filed as Kd, often an IC50 or EC50 that approximates it; ≥ and ≤ were set here for values at or beyond the usual limits of such assays.
For the next test, the target named is HLA-B*35:01. The description is as above.
Test [2] deals with HLA-B*46:01. The description is as above. The settings on record: source organism: Yellow fever virus 17D.
For test [3], the target named is HLA-B*51:01. The description is as above. The settings on record: source organism: Yellow fever virus 17D.
The target of the next test is HLA-C*14:02. The description is as above. The following applies: source organism: Yellow fever virus.
In another test the target is HLA-C*15:02. Described as above. The settings on record: source organism: Yellow fever virus.
In the next test the target is HLA-A*01:01. The test is described as above. The following applies: source organism: Giardia lamblia ATCC 50803.
The target of test [4] is HLA-A*02:01. The test is described as above. The following applies: source organism: Giardia lamblia ATCC 50803.
For test [5], the target named is HLA-A*03:01. The description is as above. The following applies: source organism: Giardia lamblia ATCC 50803.
The target in a further test is HLA-A*11:01. The description is as above. The settings on record: source organism: Giardia lamblia ATCC 50803.
For test [6], the target named is HLA-A*24:03. Described as above. The settings on record: source organism: Giardia lamblia ATCC 50803.
Test [7] has as its target HLA-A*26:01. Described as above. The following applies: source organism: Giardia lamblia ATCC 50803.
Another test addresses HLA-A*31:01. The description is as above. The following applies: source organism: Giardia lamblia ATCC 50803.
Test [8] concerns the target HLA-A*69:01. Described as above. The following applies: source organism: Giardia lamblia ATCC 50803.
Another test addresses HLA-B*07:02. The test is described as above. The following applies: source organism: Giardia lamblia ATCC 50803.
In the next test the target is HLA-B*08:01. The description is as above. The following applies: source organism: Giardia lamblia ATCC 50803.
In the next test the target is HLA-B*27:05. The test is described as above. The following applies: source organism: Giardia lamblia ATCC 50803.
The next test has as its target HLA-B*40:01. The test is described as above. The settings on record: source organism: Giardia lamblia ATCC 50803.
The next test has as its target HLA-B*44:02. The test is described as above. The following applies: source organism: Giardia lamblia ATCC 50803.
For a further test, the target named is HLA-B*58:01. The test is described as above. The settings on record: source organism: Giardia lamblia ATCC 50803.
The target of test [9] is HLA-A*02:01. The test is described as follows: IEDB peptide-MHC binding, purified MHC/competitive/fluorescence; filed as Kd, often an IC50 or EC50 that approximates it; ≥ and ≤ were set here for values at or beyond the usual limits of such assays.
Test [10] has as its target HLA-A*02:03. The description is as above. The settings on record: source organism: Encephalitozoon cuniculi GB-M1.
The target of another test is HLA-A*02:11. Described as above.
Another test has as its target HLA-A*02:12. The description is as above. The following applies: source organism: Encephalitozoon cuniculi GB-M1.
For another test, the target named is HLA-A*02:19. The description is as above.
Test [11] deals with HLA-A*03:01. The test is described as above. The settings on record: source organism: Encephalitozoon cuniculi GB-M1.
The target of test [12] is HLA-A*24:03. The description is as above. The following applies: source organism: Encephalitozoon cuniculi GB-M1.
Test [13] addresses HLA-A*26:01. Described as above. The following applies: source organism: Encephalitozoon cuniculi GB-M1.
For the next test, the target named is HLA-A*29:02. Described as above. The following applies: source organism: Encephalitozoon cuniculi GB-M1.
Test [14] concerns the target HLA-B*15:01. The test is described as above. The settings on record: source organism: Encephalitozoon cuniculi GB-M1.
Another test addresses HLA-B*18:01. The test is described as above. The settings on record: source organism: Encephalitozoon cuniculi GB-M1.
A further test concerns the target HLA-B*27:03. The description is as above. The settings on record: source organism: Encephalitozoon cuniculi GB-M1.
For the next test, the target named is HLA-B*39:01. The test is described as above. The settings on record: source organism: Encephalitozoon cuniculi GB-M1.
Test [15] concerns the target HLA-B*46:01. The description is as above. The following applies: source organism: Encephalitozoon cuniculi GB-M1.
Test [16] addresses HLA-B*51:01. Described as above. The following applies: source organism: Encephalitozoon cuniculi GB-M1.
Another test concerns the target HLA-B*57:01. Described as above. The following applies: source organism: Encephalitozoon cuniculi GB-M1.
The target of another test is HLA-B*45:06. The test is described as above. The following applies: source organism: human gammaherpesvirus 4.
Test [17] has as its target HLA-A*69:01. The description is as above. The following applies: source organism: Human immunodeficiency virus type 1 (BH5 ISOLATE).
The target of another test is HLA-A*02:02. The test is described as follows: IEDB peptide-MHC binding, purified MHC/competitive/radioactivity; filed as Kd, often an IC50 or EC50 that approximates it; ≥ and ≤ were set here for values at or beyond the usual limits of such assays. The following applies: source organism: HIV-1 M:B_ARV2/SF2.
Test [18] addresses HLA-A*02:03. The description is as above. The settings on record: source organism: HIV-1 M:B_ARV2/SF2.
A further test concerns the target HLA-A*02:06. Described as above. The following applies: source organism: HIV-1 M:B_ARV2/SF2.
The mark [19] stands for this setting: source organism: Yersinia pestis Nepal516.
[20] abbreviates: source organism: Giardia lamblia ATCC 50803.
Where [21] appears, read: source organism: Encephalitozoon cuniculi GB-M1.
[22] abbreviates: source organism: human gammaherpesvirus 4.
The mark [23] stands for this setting: source organism: Human immunodeficiency virus type 1 (BH5 ISOLATE).

For MTHPQSEAA, the Kd was ≤ 0.0001 µM with HLA-A*68:02, ≥ 5 µM with HLA-B*15:42 (setting [19]), ≥ 5 µM in the test with HLA-B*83:01 (setting [19]) and ≥ 5 µM with HLA-C*04:01 (setting [19]).

For the sequence RVLDCRTAF, the Kd with HLA-B*15:01 [1] (source organism: Yellow fever virus 17D) is 0.108 µM; with HLA-B*35:01 (source organism: Yellow fever virus), 0.324 µM; in the test with HLA-B*46:01 [2], ≥ 20 µM; in the test with HLA-B*51:01 [3] it was ≥ 20 µM; with HLA-C*14:02, 0.349 µM; in the test with HLA-C*15:02, ≥ 20 µM.

QTSTLYDFY: the Kd with HLA-A*01:01 is 0.0397 µM; with HLA-A*02:01 [4], ≥ 20 µM; with HLA-A*03:01 [5], ≥ 20 µM; with HLA-A*11:01 it was ≥ 20 µM; in the test with HLA-A*24:03 [6], ≥ 20 µM; in the test with HLA-A*26:01 [7], ≥ 20 µM. In addition, the Kd with HLA-A*31:01 is ≥ 20 µM; in the test with HLA-A*69:01 [8], ≥ 20 µM; with HLA-B*07:02, ≥ 20 µM; in the test with HLA-B*08:01 it was ≥ 20 µM; in the test with HLA-B*15:01 [1] (setting [20]), 1.71 µM; with HLA-B*27:05 it was ≥ 20 µM. Further, the Kd was 0.0286 µM in the test with HLA-B*35:01 (setting [20]), ≥ 20 µM with HLA-B*40:01, ≥ 20 µM with HLA-B*44:02 and 3.79 µM with HLA-B*58:01.

NLFEIEWEE: the Kd in the test with HLA-A*02:01 [9] (setting [21]) is ≥ 20 µM; with HLA-A*02:03 [10], ≥ 20 µM; in the test with HLA-A*02:11 (setting [21]), ≥ 20 µM; in the test with HLA-A*02:12 it was 0.298 µM; with HLA-A*02:19 (setting [21]), ≥ 20 µM; with HLA-A*03:01 [11], ≥ 20 µM. The Kd in the test with HLA-A*24:03 [12], with HLA-A*26:01 [13], with HLA-A*29:02, in the test with HLA-B*15:01 [14], in the test with HLA-B*18:01 and in the test with HLA-B*27:03 was ≥ 20 µM in each case. For the same sequence, the Kd with HLA-B*39:01, with HLA-B*46:01 [15], with HLA-B*51:01 [16] and with HLA-B*57:01 was ≥ 20 µM each time.

For the sequence WEMRAGREI, the Kd with HLA-B*15:42 (setting [22]), in the test with HLA-B*45:06, in the test with HLA-B*83:01 (setting [22]) and in the test with HLA-C*04:01 (setting [22]) was ≥ 5 µM each time.

As for SLQECVKMA, the Kd with HLA-A*02:01 [9] (setting [20]) came out at 0.0007 µM; in the test with HLA-A*02:11 (setting [20]), 0.0021 µM.

As for VLAEAMSQV, the Kd in the test with HLA-A*02:01 [9] (setting [23]) was 0.0275 µM; with HLA-A*02:11 (setting [23]), ≤ 0.0001 µM; with HLA-A*02:19 (setting [23]) it was 0.00125 µM; with HLA-A*69:01 [17] it was 0.0827 µM; in the test with HLA-A*02:02 it was 0.00243 µM; with HLA-A*02:03 [18], 0.00437 µM. Besides, in the test with HLA-A*02:06, the Kd was 0.0131 µM.

As a reminder, the Kd is the free concentration of one partner at which half of the binding sites on the other are occupied at equilibrium, for simple one-to-one binding.
